The target of assay [1] is host cellular β-tubulin (Vero cells) (African green monkey (endogenous in Vero)). Description: co-IP.
Assay [2] addresses host cellular β-tubulin (293T cells) (human (endogenous in 293T)) (UniProt P07437). The assay is described as follows: co-IP.

The source of these data is paper PMC3824165.

As to “3xFLAG-tagged full-length TgRON4 lacking its putative signal sequence (TgRON4-Full) (from UniProt B6KJ32 27-984) (natural protein)”, the ratio of precipitated TgRON4 to TgRON4 in total membrane fraction in assay [1] was found to be 1%. In the case of “3xFLAG-tagged C-terminal half of TgRON4 (TgRON4B) (domain or fragment)”, the values for the ratio of precipitated TgRON4 to TgRON4 in total membrane fraction in assay [2] and in assay [1] were 0.82% and 0.56%, respectively.
